Biological target: the molecule itself
Assay: cryo-EM structure; purified hTRPC5(1-764) supplemented with riluzole; single particle analysis, global resolution 2.4 Å

B1: truncated functional human TRPC5 (hTRPC5_(1–764)) (domain or fragment, UniProt Q9UL62 1-764, looked up)
chain: MAQLYYKKVNYSPYRDRIPLQIVRAETELSAEEKAFLNAVEKGDYATVKQALQEAEIYYNVNINCMDPLGRSALLIAIENENLEIMELLLNHSVYVGDALLYAIRKEVVGAVELLLSYRRPSGEKQVPTLMMDTQFSEFTPDITPIMLAAHTNNYEIIKLLVQKRVTIPRPHQIRCNCVECVSSSEVDSLRHSRSRLNIYKALASPSLIALSSEDPILTAFRLGWELKELSKVENEFKAEYEELSQQCKLFAKDLLDQARSSRELEIILNHRDDHSEELDPQKYHDLAKLKVAIKYHQKEFVAQPNCQQLLATLWYDGFPGWRRKHWVVKLLTCMTIGFLFPMLSIAYLISPRSNLGLFIKKPFIKFICHTASYLTFLFMLLLASQHIVRTDLHVQGPPPTVVEWMILPWVLGFIWGEIKEMWDGGFTEYIHDWWNLMDFAMNSLYLATISLKIVAYVKYNGSRPREEWEMWHPTLIAEALFAISNILSSLRLISLFTANSHLGPLQISLGRMLLDILKFLFIYCLVLLAFANGLNQLYFYYETRAIDEPNNCKGIRCEKQNNAFSTLFETLQSLFWSVFGLLNLYVTNVKARHEFTEFVGATMFGTYNVISLVVLLNMLIAMMNNSYQLIADHADIEWKFARTKLWMSYFDEGGTLPPPFNIIPSPKSFLYLGNWFNNTFCPKRDPDGRRRRRNLRSFTERNADSLIQNQHYQEVIRNLVKRYVAAMIRNSKTHEGLTEENFKELKQDISSFRYEVLDLLGNR
notes: The sample was supplemented with riluzole, and Ca2+, DAG and lipids are seen in the map; also called transient receptor potential canonical subfamily member 5; source: purified
In the case of B1, the “stoichiometry N” value is reported as 4.

Reference: publication PMC9276808, “Structural identification of riluzole-binding site on human TRPC5” (Cell Discovery, 2022)
